{"source": "paper PMC2706497", "proteins": {"B1": {"name": "MAO-B (Homo sapiens) (protein)", "chain": "SNKCDVVVVGGGISGMAAAKLLHDSGLNVVVLEARDRVGGRTYTLRNQKVKYVDLGGSYVGPTQNRILRLAKELGLETYKVNEVERLIHHVKGKSYPFRGPFPPVWNPITYLDHNNFWRTMDDMGREIPSDAPWKAPLAEEWDNMTMKELLDKLCWTESAKQLATLFVNLCVTAETHEVSALWFLWYVKQCGGTTRIISTTNGGQERKFVGGSGQVSERIMDLLGDRVKLERPVIYIDQTRENVLVETLNHEMYEAKYVISAIPPTLGMKIHFNPPLPMMRNQMITRVPLGSVIKCIVYYKEPFWRKKDYCGTMIIDGEEAPVAYTLDDTKPEGNYAAIMGFILAHKARKLARLTKEERLKKLCELYAKVLGSLEALEPVHYEEKNWCEEQYSGGCYTTYFPPGILTQYGRVLRQPVDRIYFAGTETATHWSGYMEGAVEAGERAAREILHAMGKIPEDEIWQSEPESVDVPAQPITTTFLERHLPSVPGLLRLIGLTTIFSATALGFLAHKRGLLVRV"}}, "substrate": "NCCCCc1ccccc1", "experiment": "steady-state kinetics", "type": "biochemical, Homo sapiens", "settings": "FAD (covalent)", "data": [{"protein": "B1", "values": [{"measurement": "Km", "result": "19 ± 3", "unit": "µM"}]}]}
